Laboratory results reported in paper PMC9720396, “Autoreactivity and broad neutralization of antibodies against HIV-1 are governed by distinct mutations: Implications for vaccine design strategies” (Frontiers in Immunology, 2022).

Tests used:
[1] = target: T1, UBE3A on the ProtoArray human protein microarray, Q05086; test: ProtoArray protein array; details: chain shown with the change; red circle = UBE3A; x coordinate of the circle; parent: est. 45; read off a plot
T1 chain: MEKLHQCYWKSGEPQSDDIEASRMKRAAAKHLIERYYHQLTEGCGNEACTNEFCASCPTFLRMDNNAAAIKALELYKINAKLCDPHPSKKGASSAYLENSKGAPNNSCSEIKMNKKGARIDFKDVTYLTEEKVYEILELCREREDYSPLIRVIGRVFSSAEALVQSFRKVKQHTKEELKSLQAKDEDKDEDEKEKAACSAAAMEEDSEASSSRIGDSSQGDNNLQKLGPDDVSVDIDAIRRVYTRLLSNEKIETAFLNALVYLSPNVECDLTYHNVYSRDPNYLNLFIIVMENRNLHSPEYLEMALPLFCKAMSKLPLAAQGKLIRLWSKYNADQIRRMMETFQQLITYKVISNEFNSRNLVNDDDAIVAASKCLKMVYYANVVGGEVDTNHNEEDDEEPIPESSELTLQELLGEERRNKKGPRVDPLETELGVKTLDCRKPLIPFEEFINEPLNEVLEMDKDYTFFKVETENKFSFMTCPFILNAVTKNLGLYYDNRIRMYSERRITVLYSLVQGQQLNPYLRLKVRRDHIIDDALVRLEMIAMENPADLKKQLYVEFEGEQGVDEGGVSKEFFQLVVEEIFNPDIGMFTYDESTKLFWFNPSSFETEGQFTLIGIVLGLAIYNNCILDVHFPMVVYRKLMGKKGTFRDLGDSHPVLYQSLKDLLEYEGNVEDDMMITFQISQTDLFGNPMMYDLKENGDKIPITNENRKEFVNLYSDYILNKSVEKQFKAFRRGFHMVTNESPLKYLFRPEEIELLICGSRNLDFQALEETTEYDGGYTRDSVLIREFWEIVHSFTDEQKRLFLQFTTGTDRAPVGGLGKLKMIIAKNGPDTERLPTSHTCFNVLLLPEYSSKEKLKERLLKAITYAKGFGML

[2] = target: T2, host protein UBE3A (Abcam), coupled to Luminex beads (Homo sapiens, UniProt Q05086); test: Luminex bead-based binding assay; UBE3A (Abcam) covalently linked to carboxylated beads; Abs serially diluted 1:3 from 2 µg/ml in PBS with 0.05% NaN3, 0.05% Tween 20, 1% BSA and 1% milk; 2 hours at room temperature; detected with PE goat anti-human IgG; details: both partners purified
T2 construct: UBE3A, host protein; bought from Abcam (printed there as UBE34); also called UBE34; source: bought: Abcam

[3] = target: T3, host protein UBE3A (Abcam), coupled to Luminex beads, Q05086; test: Luminex bead assay; details: chain shown with the change; left panel; highest antibody concentration plotted, est. 2000 ng/ml; parent: est. 12; read off a plot
T3 chain: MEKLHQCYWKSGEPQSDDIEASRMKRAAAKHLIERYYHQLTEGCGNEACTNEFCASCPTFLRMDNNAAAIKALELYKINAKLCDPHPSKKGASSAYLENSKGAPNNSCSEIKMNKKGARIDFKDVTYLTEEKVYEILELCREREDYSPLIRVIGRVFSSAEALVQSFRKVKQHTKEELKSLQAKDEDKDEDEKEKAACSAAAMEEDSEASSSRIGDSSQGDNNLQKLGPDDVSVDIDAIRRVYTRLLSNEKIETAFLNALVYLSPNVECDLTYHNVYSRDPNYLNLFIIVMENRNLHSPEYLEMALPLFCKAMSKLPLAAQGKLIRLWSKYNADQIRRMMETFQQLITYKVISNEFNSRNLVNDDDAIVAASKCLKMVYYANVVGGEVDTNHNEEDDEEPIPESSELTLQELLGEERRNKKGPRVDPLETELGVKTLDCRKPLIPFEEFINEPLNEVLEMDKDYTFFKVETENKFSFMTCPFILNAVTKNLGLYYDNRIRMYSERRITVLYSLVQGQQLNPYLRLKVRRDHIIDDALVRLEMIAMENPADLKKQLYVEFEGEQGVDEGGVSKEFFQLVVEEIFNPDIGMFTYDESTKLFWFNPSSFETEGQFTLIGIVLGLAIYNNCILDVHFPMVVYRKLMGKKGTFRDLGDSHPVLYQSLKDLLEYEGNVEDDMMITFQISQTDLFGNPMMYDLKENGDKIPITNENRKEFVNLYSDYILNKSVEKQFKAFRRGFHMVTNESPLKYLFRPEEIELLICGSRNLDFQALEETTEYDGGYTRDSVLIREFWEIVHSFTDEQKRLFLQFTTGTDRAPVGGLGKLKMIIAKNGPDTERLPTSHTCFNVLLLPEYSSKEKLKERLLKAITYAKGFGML

B1: IA2_N60S (antibody, V domains shown)
V domain 1: QVQLQESGPGVVKSSETLSLTCTVSGGSMGGTYWSWLRLSPGKGLEWIGYIFHTGHTNYSPSLEGRVSISVDTSEDQFSLRLRSVTAADTAVYFCASLPRGQLVNAYFRNWGRGTLVSVTA
V domain 2: SYELTQPPSVSVSPGQTATITCSGDKVASKNVCWYQVKPGQSPEVVMYENYKRPSGIPDRFSGSKSGSTATLTIRGTQATDEADYYCQVWDSFSTFVFGSGTQVTV
notes: as the heavy chain of m8 (IA2); as the light chain of m8 (IA2); recombinant IgG; also called the N60S mutant; IA2 N60S mutant; source: Expi293, transiently transfected, purified (Protein A agarose)
response [1]: 45 MFI | binding result [2]: no binding (tested: 2 µg/ml) | response [3]: 8.5 gMFI
